This note sets out measurements from patent publication US6387696.

Experiment [1] has as its target recombinant human calcium channel α1B-1α2bβ1-2 on transfected HEK293 cells (human). Kind of experiment: saturation binding of 125I-ω-CgTx GVIA to transiently transfected HEK293 cells.
In experiment [2] the target is recombinant human calcium channel α1B-1β1-2 on transfected HEK293 cells (human). The description is as above.
Experiment [3] deals with recombinant human calcium channel α1B-1β1-3 on transfected HEK293 cells (human). Described as above.
Experiment [4] addresses recombinant human calcium channel α1B-2α2bβ1-2 on transfected HEK293 cells (human). The description is as above.
Experiment [5] deals with recombinant human calcium channel α1B-2α2bβ1-3 on transfected HEK293 cells (human). Described as above.
Experiment [6] deals with recombinant human calcium channel α1B-2β1-2 on transfected HEK293 cells (human). The experiment is described as above.
The target of experiment [7] is recombinant human calcium channel α1B-2β1-3 on transfected HEK293 cells (human). The experiment is described as above.
Experiment [8] concerns the target recombinant human calcium channel α1B-1α2bβ1-2 on transfected HEK293 cells (human). Kind of experiment: ω-CgTx binding to transiently transfected HEK293 cells (8, 5 and 2 µg plasmids).
The target in experiment [9] is human calcium channel α1B-1 subunit alone on transfected HEK293 cells (human).
Chain of human calcium channel α1B-1 subunit alone on transfected HEK293 cells (human) (B1AQK5 whole entry): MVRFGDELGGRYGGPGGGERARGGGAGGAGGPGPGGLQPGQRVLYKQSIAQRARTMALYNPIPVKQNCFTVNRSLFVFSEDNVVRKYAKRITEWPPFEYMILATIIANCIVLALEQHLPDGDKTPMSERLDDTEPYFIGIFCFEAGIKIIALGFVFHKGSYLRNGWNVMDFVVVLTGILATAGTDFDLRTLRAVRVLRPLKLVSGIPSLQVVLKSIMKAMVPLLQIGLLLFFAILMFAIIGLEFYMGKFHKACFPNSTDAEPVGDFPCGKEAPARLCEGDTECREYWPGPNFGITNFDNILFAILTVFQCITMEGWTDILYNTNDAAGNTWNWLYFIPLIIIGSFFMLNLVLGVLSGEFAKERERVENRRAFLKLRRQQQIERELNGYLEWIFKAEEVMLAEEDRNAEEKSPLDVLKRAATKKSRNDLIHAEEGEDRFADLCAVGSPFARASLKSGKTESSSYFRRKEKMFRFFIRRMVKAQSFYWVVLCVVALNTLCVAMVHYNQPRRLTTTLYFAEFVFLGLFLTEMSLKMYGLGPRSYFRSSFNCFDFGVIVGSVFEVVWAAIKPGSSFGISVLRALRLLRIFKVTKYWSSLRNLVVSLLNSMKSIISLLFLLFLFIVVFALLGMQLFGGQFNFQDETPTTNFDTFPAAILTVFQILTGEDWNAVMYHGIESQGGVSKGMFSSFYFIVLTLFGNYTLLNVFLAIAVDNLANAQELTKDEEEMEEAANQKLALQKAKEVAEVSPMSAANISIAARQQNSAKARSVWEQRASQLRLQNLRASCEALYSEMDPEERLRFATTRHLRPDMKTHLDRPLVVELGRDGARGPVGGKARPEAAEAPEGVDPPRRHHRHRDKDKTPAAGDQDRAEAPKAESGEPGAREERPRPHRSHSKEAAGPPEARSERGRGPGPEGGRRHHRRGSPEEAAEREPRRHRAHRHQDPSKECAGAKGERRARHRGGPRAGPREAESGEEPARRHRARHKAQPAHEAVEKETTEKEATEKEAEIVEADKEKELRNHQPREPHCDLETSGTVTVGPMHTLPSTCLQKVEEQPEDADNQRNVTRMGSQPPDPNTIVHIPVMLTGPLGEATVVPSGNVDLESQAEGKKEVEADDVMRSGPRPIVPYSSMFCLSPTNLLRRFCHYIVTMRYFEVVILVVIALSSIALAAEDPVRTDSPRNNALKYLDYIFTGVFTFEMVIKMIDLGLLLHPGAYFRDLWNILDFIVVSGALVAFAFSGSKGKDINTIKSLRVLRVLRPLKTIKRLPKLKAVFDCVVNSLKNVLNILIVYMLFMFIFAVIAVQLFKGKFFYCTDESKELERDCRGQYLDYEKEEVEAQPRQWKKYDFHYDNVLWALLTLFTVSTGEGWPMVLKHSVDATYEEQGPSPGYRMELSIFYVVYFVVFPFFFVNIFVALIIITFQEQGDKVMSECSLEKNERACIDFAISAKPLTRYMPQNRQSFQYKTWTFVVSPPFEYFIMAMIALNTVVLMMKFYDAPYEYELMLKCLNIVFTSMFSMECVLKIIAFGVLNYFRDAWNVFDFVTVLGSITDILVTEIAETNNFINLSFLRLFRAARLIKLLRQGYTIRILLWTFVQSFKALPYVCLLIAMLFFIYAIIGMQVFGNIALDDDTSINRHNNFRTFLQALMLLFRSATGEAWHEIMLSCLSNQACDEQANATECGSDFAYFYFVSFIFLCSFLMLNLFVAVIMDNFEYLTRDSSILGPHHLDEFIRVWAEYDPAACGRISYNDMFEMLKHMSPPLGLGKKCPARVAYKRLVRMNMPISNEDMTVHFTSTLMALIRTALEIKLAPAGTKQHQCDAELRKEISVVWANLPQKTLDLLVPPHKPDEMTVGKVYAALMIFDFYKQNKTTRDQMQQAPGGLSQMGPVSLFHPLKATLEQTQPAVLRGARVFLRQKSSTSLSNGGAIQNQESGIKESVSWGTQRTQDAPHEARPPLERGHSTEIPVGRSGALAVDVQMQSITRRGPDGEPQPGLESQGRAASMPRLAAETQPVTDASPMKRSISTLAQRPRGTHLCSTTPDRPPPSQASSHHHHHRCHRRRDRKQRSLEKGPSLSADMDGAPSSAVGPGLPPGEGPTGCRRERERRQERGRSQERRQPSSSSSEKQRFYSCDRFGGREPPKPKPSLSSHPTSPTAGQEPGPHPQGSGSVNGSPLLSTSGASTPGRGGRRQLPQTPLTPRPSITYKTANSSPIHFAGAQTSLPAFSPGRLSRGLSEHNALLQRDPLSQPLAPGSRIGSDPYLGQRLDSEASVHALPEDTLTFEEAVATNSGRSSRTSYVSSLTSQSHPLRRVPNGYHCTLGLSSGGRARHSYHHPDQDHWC
In experiment [10] the target is T1, recombinant human calcium channel α1B-1α2b on transfected HEK293 cells (human).
T1 sequence (B1AQK5 whole entry, chain 1 of 2): as the sequence (B1AQK5 whole entry) above
T1 sequence (P54289 whole entry, chain 2 of 2, further chain): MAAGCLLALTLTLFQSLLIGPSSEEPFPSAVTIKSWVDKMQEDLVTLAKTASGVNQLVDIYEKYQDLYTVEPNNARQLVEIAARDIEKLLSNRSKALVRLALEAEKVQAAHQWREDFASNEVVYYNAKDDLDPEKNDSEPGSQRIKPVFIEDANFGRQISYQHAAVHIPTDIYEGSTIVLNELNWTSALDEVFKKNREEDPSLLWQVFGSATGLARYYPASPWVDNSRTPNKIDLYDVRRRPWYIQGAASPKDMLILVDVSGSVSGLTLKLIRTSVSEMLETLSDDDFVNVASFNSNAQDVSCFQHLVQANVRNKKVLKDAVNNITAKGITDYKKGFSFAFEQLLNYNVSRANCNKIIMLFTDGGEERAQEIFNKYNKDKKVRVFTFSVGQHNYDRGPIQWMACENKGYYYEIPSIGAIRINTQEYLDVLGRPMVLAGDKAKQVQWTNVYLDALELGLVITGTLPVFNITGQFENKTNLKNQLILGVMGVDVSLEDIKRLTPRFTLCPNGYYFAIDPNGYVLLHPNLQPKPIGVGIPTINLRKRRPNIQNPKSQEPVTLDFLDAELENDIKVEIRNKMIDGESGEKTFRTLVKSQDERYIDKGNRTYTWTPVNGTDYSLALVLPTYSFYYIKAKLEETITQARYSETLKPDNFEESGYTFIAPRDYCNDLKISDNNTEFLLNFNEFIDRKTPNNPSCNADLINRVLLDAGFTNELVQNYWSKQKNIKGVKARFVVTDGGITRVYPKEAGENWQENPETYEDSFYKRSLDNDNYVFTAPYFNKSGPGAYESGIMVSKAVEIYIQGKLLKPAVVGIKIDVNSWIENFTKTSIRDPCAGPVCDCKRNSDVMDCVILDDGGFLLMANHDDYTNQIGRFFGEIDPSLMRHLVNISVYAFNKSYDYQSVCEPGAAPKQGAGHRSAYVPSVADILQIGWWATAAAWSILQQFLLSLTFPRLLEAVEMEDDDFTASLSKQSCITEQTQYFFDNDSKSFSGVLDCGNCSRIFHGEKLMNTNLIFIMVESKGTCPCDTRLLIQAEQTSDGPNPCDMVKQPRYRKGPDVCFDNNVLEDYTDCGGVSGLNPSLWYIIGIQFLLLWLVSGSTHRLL
In experiment [11] the target is T1, recombinant human calcium channel …. Kind of experiment: saturation binding of 125I-ω-CgTx GVIA to transiently transfected HEK293 cells.

Chain of recombinant human calcium channel α1B-1α2bβ1-2 on transfected HEK293 cells (human) (B1AQK5 whole entry, chain 1 of 3): as the sequence (B1AQK5 whole entry) above
Chain of recombinant human calcium channel α1B-1α2bβ1-2 on transfected HEK293 cells (human) (P54289 whole entry, chain 2 of 3, further chain): as the sequence (P54289 whole entry, chain 2 of 2, further chain) above
Chain of recombinant human calcium channel α1B-1α2bβ1-2 on transfected HEK293 cells (human) (A8K114 whole entry, chain 3 of 3, further chain): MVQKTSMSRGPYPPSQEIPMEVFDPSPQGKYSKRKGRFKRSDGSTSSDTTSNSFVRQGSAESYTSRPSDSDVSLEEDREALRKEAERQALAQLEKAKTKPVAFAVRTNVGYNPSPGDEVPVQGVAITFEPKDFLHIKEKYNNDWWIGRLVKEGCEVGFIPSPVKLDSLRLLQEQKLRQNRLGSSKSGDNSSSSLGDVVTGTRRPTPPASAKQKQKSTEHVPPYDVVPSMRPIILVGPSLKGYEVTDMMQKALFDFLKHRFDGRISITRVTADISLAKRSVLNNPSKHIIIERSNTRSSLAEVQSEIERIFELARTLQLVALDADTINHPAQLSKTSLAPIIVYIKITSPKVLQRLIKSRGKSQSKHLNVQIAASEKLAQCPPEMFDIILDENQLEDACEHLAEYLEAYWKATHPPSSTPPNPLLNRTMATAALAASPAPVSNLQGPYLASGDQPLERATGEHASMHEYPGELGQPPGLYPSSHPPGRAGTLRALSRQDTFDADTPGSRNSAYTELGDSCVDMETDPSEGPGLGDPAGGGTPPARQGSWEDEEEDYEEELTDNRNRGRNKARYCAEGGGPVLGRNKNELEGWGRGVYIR
Chain of recombinant human calcium channel α1B-1β1-2 on transfected HEK293 cells (human) (B1AQK5 whole entry, chain 1 of 2): as the sequence (B1AQK5 whole entry) above
Chain of recombinant human calcium channel α1B-1β1-2 on transfected HEK293 cells (human) (A8K114 whole entry, chain 2 of 2, further chain): as the sequence (A8K114 whole entry, chain 3 of 3, further chain) above

As usually defined, the Kd is the constant that tells how readily two partners part at equilibrium. On to “125I-ω-CgTx GVIA (from UniProt P01522 46-72) (peptide)”, for which, in experiment [1], the Bmax (sites/cell) is 45300 sites/cell, the Kd stood at 0.0549 nM, the fold change of binding sites per cell (Bmax) against α1B-2α2bβ1-2 is 2.5 fold and the fold change of surface receptor density (Bmax) against α1B-1β1-2 amounted to 8 fold. Further, in [2], the Bmax (sites/cell) amounted to 5760 sites/cell, the Kd is 0.0179 nM and the fold change of surface binding (Bmax) against α1B-1 alone worked out at 8 fold. Also, in experiment [3], the Bmax (sites/cell) was determined as 8730 sites/cell, the Kd amounted to 0.0179 nM and the fold change of surface binding (Bmax) against α1B-1 alone was 10 fold. In experiment [4], the Bmax (sites/cell) was found to be 19400 sites/cell, the Kd is 0.053 nM and the fold change of surface receptor density (Bmax) against α1B-2β1-2 was found to be 9 fold. Further, in experiment [5], the Bmax (sites/cell) was found to be 37700 sites/cell, the Kd is 0.0443 nM, the fold change of binding capacity (Bmax) against α1B-2α2bβ1-2 was found to be 2 fold and the fold change of surface receptor density (Bmax) against α1B-2β1-3 was 13 fold. Further, in experiment [6], the Bmax (sites/cell) was determined as 2130 sites/cell and the Kd was determined as 0.0164 nM. Besides, in experiment [7], the Bmax (sites/cell) was determined as 2940 sites/cell and the Kd turned out to be 0.0222 nM.

Turning to “ω-CgTx (from UniProt P01522 46-72) (peptide)”, in experiment [8], the Kd was 0.0546 nM and the binding capacity (Bmax) (sites per cell) stood at 28700.

B1: 125I-ω-CgTx GVIA, P01522 46-72 (peptide)
peptide: CKSPGSSCSPTSYNCCRSCNPYTKRCY
modifications: not checked
As to B1, in experiment [9], the Bmax (sites/cell) came to 757 sites/cell and the Kd worked out at 0.0317 nM. In addition, in [10], the Bmax (sites/cell) stood at 2260 sites/cell and the Kd stood at 0.0846 nM. The fold change of binding capacity (Bmax) against α1B-1 alone in experiment [11] is 3 fold.
